From US20120288878A1 come the findings set out here.

The target of assay [1] is mutant membrane-bound TNFα on stably transfected CHO cells (B-220 cells) (UniProt P01375). Description: FACS, gate P4: CHO cells bound to anti-CD19 beads, mixed beads (FIG. 4). For orientation: In flow cytometry, cells or beads pass a laser one at a time.
Assay [2] has the same target. Description: FACS, gate P4: CHO cells bound to anti-CD19 beads (FIG. 3 middle panel).

UniProt P01375, sequence (P01375 other isoform, or with tags, fused parts or gaps mutant limits assumed): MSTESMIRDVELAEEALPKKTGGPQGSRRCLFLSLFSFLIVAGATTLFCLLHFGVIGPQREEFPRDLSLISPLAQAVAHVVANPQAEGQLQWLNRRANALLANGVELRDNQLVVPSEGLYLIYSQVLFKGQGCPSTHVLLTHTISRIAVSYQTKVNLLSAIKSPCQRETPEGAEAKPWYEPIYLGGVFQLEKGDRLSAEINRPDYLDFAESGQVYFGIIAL

Regarding “APC-labeled unrelated antibody (anti-CD19) coated on beads”, the # Events in assay [1] is 2 events; in assay [2] it was 6 events.
